Measured values from the supplement of paper PMC9170038.

Test system: MS2 coat protein
Assay: apparent KD of MS2 coat protein; designed switch direction (-1 OFF switch, 1 ON switch): -1; higher = weaker reporter binding
Summary of the method: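 Apparent KD, taken as the median over clusters for each design, was obtained by curve-fitting normalised cluster fluorescence. Designed RNA switches had been transcribed on Illumina chips by stalled E. coli RNA polymerase and titrated with SNAP-549-labelled MS2 coat protein, doubling from 0.7 or 1.5 nM to 3 µM.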

[1] = Eterna round: R95, input ligand: microRNA oligo, concentration not stated
[2] = Eterna round: R95, input ligand: FMN 200 uM
[3] = Eterna round: R95, input ligand: none
[4] = input ligand: microRNA oligo, concentration not stated

| Sequence | apparent KD of MS2 coat protein (input ligand: FMN 200 uM) | apparent KD of MS2 coat protein (input ligand: none) | apparent KD of MS2 coat protein [1] | also measured |
| --- | --- | --- | --- | --- |
| AAUAACAAGCCGAUCCUUUACAUGAGGAUCACCCAUGUGCUCGUCUUGUAAAGUACUAUCACGAAAGUGAUAGUACA (Eterna round: R97, puzzle: Sensor, turn-off variant 1) | 28 nM | 27 nM | – | – |
| AAUAACAGAGGAUAUACUAUUUUAUGUGUUUGUUAUUUUGAACAUGAGGAUCACCCAUGUAGAAGGCUGAGUAA [JMF 36] (puzzle: Exclusion 2) | – | – | 26.8 nM | – |
| AAUAACAGAGGAUAUACUAUUUUAUGUGUUUGUUGUUUUAAACAUGAGGAUCACCCAUGUAGAAGGCUGAAUGA [JMF 61] (puzzle: Exclusion 2) | – | – | 23.8 nM | – |
| AAUAACAGAGGAUAUACUAUUUUAUGUGUUUGUUGUUUUAAACAUGAGGAUCACCCAUGUAGAAGGCUGAUUAA [JMF 46] (puzzle: Exclusion 2) | – | – | 33.1 nM | – |
| AAUAACAGAGGAUAUACUGUUUUAUGUAUUUAUUAUUUUAAACAUGAGGAUCACCCAUGUAGAAGGCUGAAUAA [JMF 12] (puzzle: Exclusion 2) | – | – | 19.1 nM | – |
| AAUAACAGAGGAUAUACUGUUUUAUGUGUUUAUUAUUUUGAACAUGAGGAUCACCCAUGUAGAAGGCUGAAUAA [JMF 21] (puzzle: Exclusion 2) | – | – | 22.2 nM | – |
| AAUAACAGAGGAUAUACUGUUUUAUGUGUUUAUUAUUUUGAACAUGAGGAUCACCCAUGUAGAAGGCUGAAUGA [JMF 63] (puzzle: Exclusion 2) | – | – | 27.6 nM | – |
| AAUAACAGAGGAUAUACUGUUUUAUGUGUUUGUUGUUUUGAACAUGAGGAUCACCCAUGUAGAAGGCUGAAUGA [JMF 68] (puzzle: Exclusion 2) | – | – | 24.2 nM | – |
| AAUAACAGAGGAUAUACUGUUUUAUGUGUUUGUUGUUUUGAACAUGAGGAUCACCCAUGUAGAAGGCUGAGUAA [JMF 41] (puzzle: Exclusion 2) | – | – | 22.9 nM | – |
| AAUAACUUAGGAUAUACAUGAGGAUCACCCAUGUCCCACCCGUUACCCAUGACCAUAUGUAGAAGGAAGAAGAA [Exy#8] (Eterna round: R97, puzzle: Exclusion 3) | 28 nM | 35.7 nM | – | – |
| AAUAAGCAAGGAUAUACGACGAAAAGCGUCAGUGGGCGAUGACAUGAGGAUCACCCAUGUAGAAGGUGCACAUC [Isragela] (puzzle: Exclusion 2) | – | – | 125 nM | apparent KD of MS2 coat protein [2]: 314 nM; apparent KD of MS2 coat protein [3]: 203 nM |
| AAUAAGCGAGGAUAUACAUGAGGAUCACCCAUGUGGACCGGGUGUUCAGCAAAUAAAAGUAGAAGGCGCAAAAG [Tibiater] (puzzle: Exclusion 3) | – | – | 46.8 nM | apparent KD of MS2 coat protein [2]: 29.1 nM; apparent KD of MS2 coat protein [3]: 25.8 nM |
| AAUAAGGGAGGAUAUGCGGAACGGUUUGUUCUCAGUGAGGCACAUGAGGAUCACCCAUGUAGAAGGCCCGGCAA [Orinar] (Eterna round: R96, puzzle: Exclusion 2) | 63.4 nM | 17.4 nM | – | apparent KD of MS2 coat protein [4]: 12.1 nM |
| AAUAAGGGAGGAUAUGCGGAACGGUUUGUUCUCAGUGAGGCACAUGAGGAUCACCCAUGUAGAAGGCCCGGCAA [Orinar] (puzzle: Exclusion 2) | – | – | 13 nM | – |
| AAUAAUAAAGUGAGGAUAUCUAGAGCCUCGGCUCUAGAGAAGGCACAUGAGGAUCACCCAUGUCUCAAUAAUAA [BmEx4/1-C5] (Eterna round: R97, puzzle: Brourd's mod of Exclusion 4) | 60.5 nM | 21.3 nM | – | – |
| AAUAAUAAGGAGGAUAUCGUAUCGGAGACGAUACGAGAAGGCUUAACAUGAGGAUCACCCAUGUUCCUCAAUAA [Mat - Exclusion 6 - Eli Mod - D89] (puzzle: Exclusion 6) | – | – | 35.2 nM | – |
| AAUACAAGCUAUUGAUCCCACAUGAGGAUCACCCAUGUUCCUGGCCGUGAGGCUAGGUAGACAAUAGCUCGUCUUAU [Sensor-V1 #43] (Eterna round: R97, puzzle: Sensor, turn-off variant 1) | 27.9 nM | 26.4 nM | – | – |
| AAUACAAUAAUUAAAGAGAUAGUACAUUAUACAAGUGAAACAUGAGGAUCACCCAUGUCCUCAUUUGCUCGUCUAAU [Hunting Buffalo with a BB Gun] (puzzle: Sensor v3, turn-off variant 2) | – | – | 142 nM | apparent KD of MS2 coat protein [2]: 334 nM; apparent KD of MS2 coat protein [3]: 435 nM |
| AAUAUACAUGUAGGAUAUCUGCACGUGUAGUGCAGAGAAGGACAUGAGGAUCACCCAUGUAAUUAAGAUCAAUUAUUAAAUAUU [ENG1/3-B3] (Eterna round: R96, puzzle: Exclusion NG 1) | 447 nM | 62.3 nM | – | apparent KD of MS2 coat protein [4]: 32.2 nM |

| Sequence | apparent KD of MS2 coat protein (input ligand: FMN 200 uM) | apparent KD of MS2 coat protein (input ligand: none) | apparent KD of MS2 coat protein [1] | also measured |
| --- | --- | --- | --- | --- |
| AAUAUCGUAGGAUAUUAGUGCUCAGACAUGAGGAUCACCCAUGUUUGGUGGGUUGGAGAAUGAGAAGGGCGAUGAA [EX5 #17] (Eterna round: R97, puzzle: Exclusion 5) | 376 nM | 687 nM | – | – |
| AAUAUGUUAGGAUAUCUCAGCUGCCCGUAAACAGGCUAGCGAGAGAAGGGACAUGAGGAUCACCCAUGUCAUCC [Eternabot (Original) Solution 2] (Eterna round: R97, puzzle: Exclusion 4) | 17.1 nM | 15.6 nM | – | – |
| AAUCAACAUGAGGAUCACCCAUGUGAGGAUAUAGGCAUGCAUGCAUGCAUGCAUGCAACUAGAAGGCACAAUAC [Design #18] (Eterna round: R97, puzzle: Exclusion 1) | 58.2 nM | 37.4 nM | – | – |
| AAUCCACAUGAGGAUCACCCAUGUGAGGAUAUGAUACUAUGUACUUCGGUACAUAGUAUCAGAAGGCAUAUGAA [Ex1-3: 49] (puzzle: Exclusion 1) | – | – | 26.9 nM | – |
| AAUCCUAGAGGAUAUACAUGUGAACUACUGUACAUCCCUGUACAUGAGGAUCACCCAUGUAGAAGGCUGACGGA [Eternabot (L2) Solution 97] (Eterna round: R97, puzzle: Exclusion 2) | 244 nM | 197 nM | – | – |
| AAUGCAAGCAAGAUCCUAAACAUGAGGAUCACCCAUGUGCUCGUCUUAUAAAGUACUAUCACGAAAGUGAUAGUACA [Sensor 3, v1 - 64] (puzzle: Sensor v3, turn-off variant 1) | – | – | 132 nM | apparent KD of MS2 coat protein [2]: 515 nM; apparent KD of MS2 coat protein [3]: 744 nM |
| AAUGGGUGUGUGAGGAUAUACGAAGGCAAUUGCCAGUAGAAGGUACAUGAGGAUCACCCAUGUGUCCAAAAGAG [Tititemaon] (puzzle: Brourd's mod of Exclusion 4) | – | – | 9.11 nM | apparent KD of MS2 coat protein [2]: 12.8 nM; apparent KD of MS2 coat protein [3]: 13.2 nM |
| AAUUAACAUCAGGAUAUGACUAGCUUCGGCUAGUCAGAAGGGAUGACAUGAGGAUCACCCAUGUGAUCAAUUAA [E6/2-A1] (Eterna round: R97, puzzle: Exclusion 6) | 127 nM | 134 nM | – | – |
| AAUUAAGCAAGCAGAUCCCACAUGAGGAUCACCCAUGUGCUCGUCUUAUAAGGUACUGUGACGAAAGUCACGGUACC [Mat - Sensor, turn-off var - Eli Mod - D72] (Eterna round: R97, puzzle: Sensor, turn-off variant 1) | 129 nM | 120 nM | – | – |
| AAUUAGCAAGCAAGAUCCCACAUGAGGAUCACCCAUGUGCUCGUCUUAUAAGGUACUGUGACGAUAGUCACGGUACC [Mat - Sensor, turn-off var - Eli Mod - D49] (Eterna round: R97, puzzle: Sensor, turn-off variant 1) | 42.9 nM | 49.4 nM | – | – |
| AAUUAGCAAGCGAGAUCCCACAUGAGGAUCACCCAUGUGCUCGUCUUAUAAAAGACUGUGACGAUAGUCACGGUCAC [Mat - Sensor, turn-off var - Eli Mod - D25] (Eterna round: R97, puzzle: Sensor, turn-off variant 1) | 15.3 nM | 12.3 nM | – | – |
| AAUUAGUCAGGAUAUACAUGAGGAUCACCCAUGUAAACUUUUAGUUUAAUUUGAAUGUGUAGAAGGGACAUUAA [Ex3 #48] (Eterna round: R97, puzzle: Exclusion 3) | 25.4 nM | 29.7 nM | – | – |
| AAUUCUAGGGUCAGACGCACAAGCUUUUUGCUCGUUUUAACAUGAGGAUCACCCAUGUCUAGUGGAUCUGAUCGGGC [JL ViennaUCT Isreen mod 8] (Eterna round: R96, puzzle: Sensor v3, turn-off variant 2) | 25.3 nM | 33.3 nM | – | apparent KD of MS2 coat protein [4]: 58.1 nM |
| AAUUCUAGGGUCAGACGCACAAGCUUUUUGCUCGUUUUAACAUGAGGAUCACCCAUGUCUAGUGGAUCUGAUCGGGC [JL ViennaUCT Isreen mod 8] (puzzle: Sensor v3, turn-off variant 2) | – | – | 72.9 nM | apparent KD of MS2 coat protein [2]: 24.8 nM; apparent KD of MS2 coat protein [3]: 22.4 nM |
| AAUUUAAUUAACAAGCUUUACAUGAGGAUCACCCAUGUGAUCAUGCUCGUCUUAUAAUUAAUUAAUUAAUUAAUUAA [Stov1/6-A1] (Eterna round: R97, puzzle: Sensor, turn-off variant 1) | 48.4 nM | 59.2 nM | – | – |
| AAUUUACAUGAGGAUCACCCAUGUGAGGAUAUAUGUUUAAAUUUUUUUUUUUUUUUUCAUAGAAGGCGCGUGAU [JR_Exc1_Sub048] (Eterna round: R97, puzzle: Exclusion 1) | 17.3 nM | 31.6 nM | – | – |
| AAUUUACAUGAGGAUCACCCAUGUGAGGAUAUAUGUUUUAAUUUUUUUUUUUUUUUUCAUAGAAGGCGCGUGAU [JR_Exc1_Sub047] (Eterna round: R97, puzzle: Exclusion 1) | 49.4 nM | 43.5 nM | – | – |
| AAUUUACAUGAGGAUCACCCAUGUGAGGAUAUGAUACUAUGUACUUCGGUACAUAGUAUCAGAAGGCAUGUGGG [Ex1-3: 93] (puzzle: Exclusion 1) | – | – | 19.1 nM | – |
